# B1: human MuRF1 polypeptide (muscle ring finger 1), full length (enzyme)
# chain: MENLEKQLICPICLEMFTKPVVILPCQHNLCRKCANDIFQAANPYWTSRGSSVSMSGGRFRCPTCRHEVIMDRHGVYGLQRNLLVENIIDIYKQECSSRPLQKGSHPMCKEHEDEKINIYCLTCEVPTCSMCKVFGIHKACEVAPLQSVFQGQKTELNNCISMLVAGNDRVQTIITQLEDSRRVTKENSHQVKEELSQKFDTLYAILDEKKSELLQRITQEQEEKLSFIEALIQQYQEQLDKSTKLVETAIQSLDEPGGATFLLTAKQLIKSIVEASKGCQLGKTEQGFENMDFFTLDLEHIADALRAIDFGTDEEEEEFIEEEDQEEEESTEGKEEGHQ
# notes: Full length bait in the yeast two-hybrid screens; also called TRIM63; RNF28
# What was measured:
# ENO3 (NP_443739.2) = ENO3 (NP_443739.2) (human, UniProt P13929 1-434, limits assumed); test: yeast two-hybrid
# Sequence of ENO3 (NP_443739.2) (P13929 whole entry): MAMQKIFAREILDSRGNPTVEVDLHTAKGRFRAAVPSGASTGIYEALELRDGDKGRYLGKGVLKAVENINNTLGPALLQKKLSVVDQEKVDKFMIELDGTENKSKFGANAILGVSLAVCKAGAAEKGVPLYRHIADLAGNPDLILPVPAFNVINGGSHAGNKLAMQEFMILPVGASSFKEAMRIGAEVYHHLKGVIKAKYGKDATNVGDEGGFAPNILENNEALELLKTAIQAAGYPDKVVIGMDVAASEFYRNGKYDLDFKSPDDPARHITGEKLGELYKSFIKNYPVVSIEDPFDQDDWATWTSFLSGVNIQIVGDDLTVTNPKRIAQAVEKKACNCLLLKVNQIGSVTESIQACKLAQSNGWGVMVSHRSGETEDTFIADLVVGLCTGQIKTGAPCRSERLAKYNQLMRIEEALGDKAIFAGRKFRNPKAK
# EEF1G (NP_001395.1) = molecular target: T1, EEF1G (NP_001395.1) (human, UniProt P26641 1-437, limits assumed); test: yeast two-hybrid, full length bait
# T1 construct: also called translation initiation factor EEF1G
# T1 sequence (P26641 whole entry): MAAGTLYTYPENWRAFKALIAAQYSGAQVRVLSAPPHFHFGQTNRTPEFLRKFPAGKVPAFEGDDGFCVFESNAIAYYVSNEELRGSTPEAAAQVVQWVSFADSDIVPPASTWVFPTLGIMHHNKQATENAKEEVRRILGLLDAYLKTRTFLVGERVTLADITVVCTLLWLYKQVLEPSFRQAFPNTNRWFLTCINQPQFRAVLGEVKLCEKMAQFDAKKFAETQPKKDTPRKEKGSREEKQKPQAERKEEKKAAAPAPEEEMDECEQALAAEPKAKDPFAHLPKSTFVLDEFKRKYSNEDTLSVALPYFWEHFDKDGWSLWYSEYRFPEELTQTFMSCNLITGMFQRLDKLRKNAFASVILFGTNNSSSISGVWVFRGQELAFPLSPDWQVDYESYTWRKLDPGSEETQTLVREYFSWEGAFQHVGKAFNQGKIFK
# [1] = molecular target: T2, sequestosome-1 (NP_003891.1) (human, UniProt Q13501 1-440, limits assumed); test: yeast two-hybrid, full length bait
# T2 construct: also called SQSTM1
# [2] = molecular target: B1; test: yeast two-hybrid
# [3] = molecular target: B1; test: yeast two-hybrid, full length bait
binder,measurement,setting,value
B1,binding result,ENO3 (NP_443739.2),binds
same,binding result,EEF1G (NP_001395.1),binds
same,binding result,[1],binds
"FABP4 (NP_001433.1) (other, human, UniProt P15090 1-132, looked up) MCDAFVGTWKLVSSENFDDYMKEVGVGFATRKVAGMAKPNMIISVNGDVITIKSESTFKNTEISFILGQEFDEVTADDRKVKSTITLDGGVLVHVQKWDGKSTTIKRKREDDKLVVECVMKGVTSTRVYERA",binding result,[2],binds
"FHL2 (NP_963851.2) (other, human, UniProt Q14192 1-279, looked up) MTERFDCHHCNESLFGKKYILREESPYCVVCFETLFANTCEECGKPIGCDCKDLSYKDRHWHEACFHCSQCRNSLVDKPFAAKEDQLLCTDCYSNEYSSKCQECKKTIMPGTRKMEYKGSSWHETCFICHRCQQPIGTKSFIPKDNQNFCVPCYEKQHAMQCVQCKKPITTGGVTYREQPWHKECFVCTACRKQLSGQRFTARDDFAYCLNCFCDLYAKKCAGCTNPISGLGGTKYISFEERQWHNDCFNCKKCSLSLVGRGFLTERDDILCPDCGKDI",binding result,[3],binds
